How the values were obtained:
rat cardiac troponin I = target: T1, rat cardiac troponin I (rat, UniProt P23693 1-211); assay: SEC-MALS; complex reconstituted from the three separately purified subunits mixed 1:1:1 in 6 mol/liter urea, dialysed, purified on Resource-Q; Superdex 200 5/150 GL in 50 mmol/liter Tris-HCl (pH 7.4), 5 mM MgCl2, 1 mmol/liter CaCl2, 100 mM NaCl, 100 mmol/liter tris(2-carboxyethyl)phosphine; also characterized by HPLC and ESI-MS; conditions: both partners purified
T1 construct: cardiac troponin I, rat, cloned from a rat heart cDNA library into pET3a, codon-optimized; No tag is named; unphosphorylated recombinant protein; also called rcTnI; rat cTnI; source: E. coli BL21(DE3)-RIPL, inclusion bodies, purified (CM Sepharose in 6 mol/liter urea)
T1 sequence (P23693 whole entry): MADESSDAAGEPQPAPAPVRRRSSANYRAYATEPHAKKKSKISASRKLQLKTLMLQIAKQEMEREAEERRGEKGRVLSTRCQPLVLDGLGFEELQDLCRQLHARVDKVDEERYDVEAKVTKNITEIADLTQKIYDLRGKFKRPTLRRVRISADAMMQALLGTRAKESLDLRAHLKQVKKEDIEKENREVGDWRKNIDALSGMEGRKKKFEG

rat cardiac troponin C = rat cardiac troponin C (rat, UniProt Q4PP99 1-161); assay: as above; conditions: both partners purified

B1: rat cardiac troponin T (natural protein)
chain: not shown
notes: cardiac troponin T, rat, cloned from a rat heart cDNA library into pET3a, codon-optimized; also called rat cTnT; rcTnT; source: E. coli BL21(DE3)-RIPL, soluble fraction, purified (ion exchange, similar method to rcTnI)
B1 was tested, and the “stoichiometry N” value (rat cardiac troponin I) was 1 and the “stoichiometry N” value (rat cardiac troponin C) was 1.

From paper PMC7135997, “Cardiac myosin regulatory light chain kinase modulates cardiac contractility by phosphorylating both myosin regulatory light chain and troponin I” (The Journal of Biological Chemistry, 2020)
